Reference: patent US20110189093A1 (PROSCAN RX PHARMA, published 2011)

B1: antibody PSf42.3 (antibody, V domains shown)
VH: EVQLQQSGAELAKPGASVKLSCTGSGFNIKDTYMHWVKQRPEQGLEWIGGIDPETGNTKFDPRFQDKATITSDTSSNTVLLQLSSLTSEDTAVYYCANLGRPFAHWGQGTTVTVS
VL: HSADPVSISCKSSQSLLHRDGKTYLNWVFQRPGQSPQRLIYLVSLVDSGVPDRFTGSGSGTDFTLKINRVEAEDLGVYYCWQGTHFPRTFGGGTKLEIKR
B2: antibody PSf34.1 (antibody, V domains shown)
VH: EVQLEESGAELVKPGASVKLSCTASGFYIKDTYIHWVKQRPEEVLEWIGGIDPADGDTRYDPKFQGKATITADTSSNSAYLHLTSLTSEDTAVYFCARELAYWGAGTTVTVS
VL: not shown
notes: also called mAb PSf34.1
B3: antibody PSf47.1 (antibody, V domains shown)
VH: EVKLQESGPDLVKPGASVKVSCKASGYTFTVYVIHWVIQKPGQGLEWIGYINPYNDGAEYNENFKGKATLTSDKSSSTAYMELSSLTSEDSAVYYCTRGENYYTSRYGFFDVWGQGTTVTVS
VL: DILMPQSPSSLAVSAGEKVTMSCKSSQSLLNSRTRKNYLAWYQQKLGQSPKLLIYWASTRESGVPDRFTGSGSGTDFTLTISSVQAEDLAVYYCKQSYNFITFGAGTKLELKR
notes: also called mAb PSf47.1
B4: antibody PSf42.4 (antibody, V domains shown)
VH: EVKLQQSGAELVKPGASVKLSCTASGFSIRDTYMHWVRQRPEQGLEWITGIDPENGNSKYAPRFQDKATIIADTSSNTVHLQLDTLTSEDTAVYYCTRELAYWGQGTTVTVS
VL: DILMTQSPLTLSVIIGQPASFSCKSSHSLLHRDGRTYLNWLLQRPGQSPQRLIYLVSKLDSGVPDRFTGSGSGTDFTLKISRVEAEDLGVYYCWQGTHFPRTFGGGTKLEIKR
B5: antibody PSf42.1 (antibody, V domains shown)
VH: EVQLEESGAEFVRPGAAVKLSCTVSGLNIKDSYLHWVKQRPEQGLEWIGGIDPANGDVEYDPKFQGKAAITADTSSNTAYLRLSSLTSEDTAVYYCAPFPYWGAGTTVTVS
VL: B4 VL

biological target: T1, prostate specific membrane antigen (PSMA) on LNCaP cells (human, UniProt Q04609 1-750); assay: saturation binding on whole LNCaP cells, detected with 125I goat anti-mouse IgG
T1 construct: also called PSMA-expressing cells
T1 sequence (Q04609 whole entry): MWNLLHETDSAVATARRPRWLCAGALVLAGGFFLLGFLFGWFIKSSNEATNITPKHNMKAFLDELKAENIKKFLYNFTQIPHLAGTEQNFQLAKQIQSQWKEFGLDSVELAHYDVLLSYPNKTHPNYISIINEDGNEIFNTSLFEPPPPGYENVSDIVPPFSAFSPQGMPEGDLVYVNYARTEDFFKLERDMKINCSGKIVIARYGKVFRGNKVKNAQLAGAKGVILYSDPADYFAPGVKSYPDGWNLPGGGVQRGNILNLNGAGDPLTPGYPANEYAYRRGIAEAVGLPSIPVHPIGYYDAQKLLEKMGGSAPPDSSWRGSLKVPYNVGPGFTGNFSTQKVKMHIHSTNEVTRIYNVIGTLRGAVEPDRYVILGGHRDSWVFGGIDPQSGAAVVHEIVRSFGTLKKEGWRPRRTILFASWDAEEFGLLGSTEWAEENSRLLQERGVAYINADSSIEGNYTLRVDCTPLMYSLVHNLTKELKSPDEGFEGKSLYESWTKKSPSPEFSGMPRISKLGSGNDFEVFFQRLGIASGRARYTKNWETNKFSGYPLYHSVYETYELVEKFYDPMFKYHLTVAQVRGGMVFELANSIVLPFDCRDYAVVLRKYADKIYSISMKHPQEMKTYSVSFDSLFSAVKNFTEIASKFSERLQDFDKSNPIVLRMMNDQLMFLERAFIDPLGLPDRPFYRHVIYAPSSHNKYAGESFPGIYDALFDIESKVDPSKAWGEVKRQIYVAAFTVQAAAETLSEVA
Description: Antibody binding assay: Saturation binding studies were performed on whole cells with purified anti-PSMA MAb followed by detection of cellbound MAb using ¹²⁵I-labeled goat anti-mouse IgG. Briefly, nearly confluent LNCaP cells were rinsed with ice-cold PBS and scraped in PBS containing the protease inhibitor cocktail described above. Cells (7.5×10⁶ per tube) were incubated with 100 μL of antibody diluted in complete RPMI to various concentrations for 1 h at room temperature. […] Following removal of unbound secondary antibody by centrifugation, the radioactivity associated with the cell pellet was determined using a gamma counter. Non-specific binding was determined in the presence of a 100-fold molar excess of the antibody antigen PSMA₄₉₀₋₅₀₀. […] For these experiments, a parallel sample in which the primary MAb was replaced by diluent served as a control for background binding of the secondary antibody and was less than 0.5%. Counts were analyzed by non-linear regression of total binding (Y) according to the law of mass action using the formula Y=Bmax*X/(Kd+X), where Bmax, Kd, and X represent the maximal binding, the concentration of ligand at half maximal binding, and the concentration of primary antibody, respectively. The ¹²⁵I-labeled goat anti-mouse IgG used in these experiments was radio-iodinated using the chloramine T method. Briefly, 10 μg of goat anti-mouse IgG whole molecule was incubated with 300 pmol of chloramine T and 90 μCi of [¹²⁵I] sodium iodide in a final volume of 25 μL containing 0.5 M sodium phosphate (pH 7.5) for 20 min at room temperature before quenching the reaction with 100 μL of sodium metabisulfite at 2.6 mg/mL in 0.5 M sodium phosphate buffer (pH 7.5). The labeled antibody was purified from free iodide by gel filtration on Sephadex G25. The amount of free iodide contaminating the labeled antibody was evaluated by ITLC-SG and never exceeded 1%.

Binder | Bmax [pmol/mg] | Kd [nM]
B1 | 4.9 | 20.4
B2 | 4.8 | 
B3 | 4.6 | 
B4 | 5.1 | 34.1
B5 | 2.8 | 14.7
